Test results published in patent US20190256846A1 (AGENCY FOR SCIENCE TECHNOLOGY AND RESEARCH, published 2019).

Columns and labels:
[1] = target: ErbB4 on MCF-7 cells (endogenous) (UniProt Q15303); assay: cell-based or functional assay
[2] = target: T1, ErbB4 mutant lacking the C-terminal PDZ binding motif (ErbB4 APBM) (UniProt Q15303 26-1308, limits assumed); assay: GST pull-down from lysates of overexpressing cells, Western blot with anti-ErbB4
T1 construct: The mutation is a triple alanine substitution of the last three residues, not a deletion; Present in HEK293 cell lysate; also called mutant with a disrupted PBM
T1 sequence (Q15303 other isoform, or with tags, fused parts or gaps mutant limits assumed): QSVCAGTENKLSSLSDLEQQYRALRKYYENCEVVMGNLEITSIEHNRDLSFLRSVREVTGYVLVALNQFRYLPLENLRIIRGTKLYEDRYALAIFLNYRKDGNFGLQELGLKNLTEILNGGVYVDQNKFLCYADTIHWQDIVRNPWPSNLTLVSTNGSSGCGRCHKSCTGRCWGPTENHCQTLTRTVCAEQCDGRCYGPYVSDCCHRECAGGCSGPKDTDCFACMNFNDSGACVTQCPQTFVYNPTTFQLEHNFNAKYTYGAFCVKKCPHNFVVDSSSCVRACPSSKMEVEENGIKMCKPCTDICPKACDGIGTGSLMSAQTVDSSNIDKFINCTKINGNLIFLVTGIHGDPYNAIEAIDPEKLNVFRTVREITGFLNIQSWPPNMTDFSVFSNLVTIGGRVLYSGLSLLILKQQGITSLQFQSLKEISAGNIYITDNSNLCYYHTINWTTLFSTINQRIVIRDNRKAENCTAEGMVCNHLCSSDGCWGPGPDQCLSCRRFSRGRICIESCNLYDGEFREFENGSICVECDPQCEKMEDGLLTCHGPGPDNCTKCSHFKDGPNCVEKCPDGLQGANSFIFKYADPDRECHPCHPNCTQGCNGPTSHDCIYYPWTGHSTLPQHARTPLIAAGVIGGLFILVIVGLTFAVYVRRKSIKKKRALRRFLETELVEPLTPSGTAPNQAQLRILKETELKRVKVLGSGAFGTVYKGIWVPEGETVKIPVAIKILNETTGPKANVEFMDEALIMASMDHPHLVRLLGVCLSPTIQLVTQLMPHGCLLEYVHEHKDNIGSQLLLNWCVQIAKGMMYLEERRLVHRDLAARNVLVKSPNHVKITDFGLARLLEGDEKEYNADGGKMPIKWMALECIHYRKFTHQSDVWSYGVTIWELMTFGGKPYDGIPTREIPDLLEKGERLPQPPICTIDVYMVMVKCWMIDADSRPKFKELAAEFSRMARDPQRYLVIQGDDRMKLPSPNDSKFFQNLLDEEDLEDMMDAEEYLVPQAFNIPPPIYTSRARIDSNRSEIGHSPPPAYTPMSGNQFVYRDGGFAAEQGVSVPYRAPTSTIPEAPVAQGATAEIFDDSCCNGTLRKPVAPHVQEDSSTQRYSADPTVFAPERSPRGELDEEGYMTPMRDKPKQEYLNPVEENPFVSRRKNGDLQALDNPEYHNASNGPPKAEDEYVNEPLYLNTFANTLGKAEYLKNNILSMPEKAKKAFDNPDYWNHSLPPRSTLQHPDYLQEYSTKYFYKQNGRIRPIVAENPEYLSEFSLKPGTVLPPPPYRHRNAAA
Procedure: ErbB4 and mutant was transfected into HEK293 cells using JetPrimePolyPlus transfection kit (PolyPlus Transfections) according to manufacturer's instructions. […] GST and GST ZO-1PDZ1-3 domain fusion proteins were generated, purified, and bound to Glutathione Sepharose-4B (GE Healthcare Life Sciences) using standard protocols. Bound proteins were quantified by SDS-PAGE by using known amounts of BSA as standards. 18 μl of GST beads were incubated with 1 μg of GST fusion proteins. Unbound proteins were removed by washing with ice cold PBS. 300 μg of the transfected cells were then added and incubated at 4° C. for 2 hr followed by washing 4 times with ice cold lysis buffer. The bound fractions were eluted with 4×SDS-PAGE sample buffer, separated by SDS PAGE, immunoblotted onto PVDF membranes and probed with Rabbit anti-ErbB4 antibodies.

Sequence of ErbB4 on MCF-7 cells (endogenous) (Q15303 26-1308 limits assumed): as the sequence (Q15303 other isoform, or with tags, fused parts or gaps mutant limits assumed) above, with A1281T, A1282V, A1283V counted along it

Molecule | Erk activation (Erk phosphorylation, Western blot) in Tjp1 shRNA MCF-7 cells, 15 min stimulation [1] [ng/mL] | Erk activation (Erk phosphorylation, Western blot) in control shRNA MCF-7 cells, 15 min stimulation [1] [ng/mL] | binding result [2]
human NRG-1 (Cell Signalling Technology, Cat. #5218) (from UniProt Q02297 177-241) (ligand) | 2.5 | 50 to 100 | –
GST fusion protein carrying the three PDZ domains of Tjp1 (GST-Tjp1 PDZ1-3) (other, human, UniProt Q07157 1-503, looked up, domain: PDZ 1-3 domains; also called GST ZO-1PDZ1-3 domain fusion protein; ZO-1 (Tjp1) PDZ domains; not shown: glutathione S-transferase (GST) tag encoded by the pGEX 4T-1 vector) MSARAAAAKSTAMEETAIWEQHTVTLHRAPGFGFGIAISGGRDNPHFQSGETSIVISDVLKGGPAEGQLQENDRVAMVNGVSMDNVEHAFAVQQLRKSGKNAKITIRRKKKVQIPVSRPDPEPVSDNEEDSYDEEIHDPRSGRSGVVNRRSEKIWPRDRSASRERSLSPRSDRRSVASSQPAKPTKVTLVKSRKNEEYGLRLASHIFVKEISQDSLAARDGNIQEGDVVLKINGTVTENMSLTDAKTLIERSKGKLKMVVQRDERATLLNVPDLSDSIHSANASERDDISEIQSLASDHSGRSHDRPPRRSRSRSPDQRSEPSDHSRHSPQQPSNGSLRSRDEERISKPGAVSTPVKHADDHTPKTVEEVTVERNEKQTPSLPEPKPVYAQVGQPDVDLPVSPSDGVLPNSTHEDGILRPSMKLVKFRKGDSVGLRLAGGNDVGIFVAGVLEDSPAAKEGLEEGDQILRVNNVDFTNIIREEAVLFLLDLPKGEEVTILAQKK | – | – | no binding
